Measurements taken from paper PMC4150777 (Nucleic Acids Research, 2014).
Numbering of substitutions follows the chain as printed.

B1: Shewanella oneidensis MR-1 HipAso (SO0706), recombinant wild type (enzyme)
chain: MSTAKTLTLEMHLGDLMIGELSFDATADTFAVHYTKDWQQSGFPLSPTIPLDGTGTSNQISMFLVNLLPENKGLDYLIESLGVSKGNTFALIRAIGLDTAGAIAFVPKGALLPETQLRPIKAEEVIQRIEDPTMWPMEIWDGKPRLSVAGVQPKLNLFYNGKEFAFAEGTLSSTHIVKFEKYHHLVINEFITMRLAKVLGMNVANVDIVHFGRYKALCVERFDRRNIPGEQRVLRRHIVDSCQALGFSVSKKYERNFGTGRDVKDIREGVSFNRLFSLAAKCRNPVAAKQDMLQWALFNLLTGNADAHGKNYSFFMTPSGMEPTPWYDLVSVDMYEDFEQQLAMAIDDEFDPNSIYAYQLAAFMDGLGLPRNLLISNLTRIARRIPQAIAEVILMLPPLDEDEASFVAHYKTQLLARCERYLGFVDEVRDVEV
B2: hipBAso operator DNA (26 bp) (dsDNA)
DNA 1: ATTAGGTGTACTTATCTACACTTTTT
DNA 2: AAAAAGTGTAGATAAGTACACCTAAT
B3: Shewanella oneidensis MR-1 HipBso (SO0705) (natural protein, UniProt Q8EIX4 1-78, looked up)
chain: MASPLNQQSLGLLIKERRKSAALTQDVAAMLCGVTKKTLIRVEKGEDVYISTVFKILDGLGIDIVSAQTSDTETNGWY

Legend:
[1] = molecular target: B3; assay: ITC
HipBso = molecular target: T1, HipBso (Shewanella oneidensis MR-1, UniProt PDB:4PU3_2 1-118); assay: ITC
T1 sequence: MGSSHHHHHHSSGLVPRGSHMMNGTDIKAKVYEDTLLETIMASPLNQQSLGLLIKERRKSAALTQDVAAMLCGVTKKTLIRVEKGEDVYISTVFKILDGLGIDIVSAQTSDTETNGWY

SEC = molecular target: the molecule itself; assay: SEC
[2] = molecular target: T2, HipAso D306Q active site mutant (non-phosphorylated) (Shewanella oneidensis MR-1, UniProt Q8EIX3 1-433, D306Q); assay: ITC
T2 sequence: B1 chain with D306Q

B1
stoichiometry N [1]: 2 HipAso per HipBso dimer

B2
Kd (HipBso): 290 nM

B3
stoichiometry N (SEC): 2 | Kd [2]: 300 nM
